Test results: patent publication US20220380425A1, “ANGPTL3 BASED VACCINE FOR THE TREATMENT OF LIVER DISEASE” (CADILA HEALTHCARE LIMITED, priority 2019, published 2022)
Square brackets hold non-standard residues; d marks the D form. Ends that are not written are not given here. APPA = 2-aminophenyl pentanoic acid; hArg = N=C(N)NCCCC[C@H](N)C(=O)O; Cit = NC(=O)NCCC[C@H](N)C(=O)O; Nle = CCCC[C@H](N)C(=O)O; Aib = CC(C)(N)C(=O)O

T1: ANGPTL3 (Homo sapiens, UniProt Q9Y5C1)
T1 construct: In humans, Evinacumab (a therapeutic mAb developed against ANGPTL3) caused a dose-dependent reduction; host or cells: human subjects (circulating endogenous protein)
T1 sequence (Q9Y5C1 17-460): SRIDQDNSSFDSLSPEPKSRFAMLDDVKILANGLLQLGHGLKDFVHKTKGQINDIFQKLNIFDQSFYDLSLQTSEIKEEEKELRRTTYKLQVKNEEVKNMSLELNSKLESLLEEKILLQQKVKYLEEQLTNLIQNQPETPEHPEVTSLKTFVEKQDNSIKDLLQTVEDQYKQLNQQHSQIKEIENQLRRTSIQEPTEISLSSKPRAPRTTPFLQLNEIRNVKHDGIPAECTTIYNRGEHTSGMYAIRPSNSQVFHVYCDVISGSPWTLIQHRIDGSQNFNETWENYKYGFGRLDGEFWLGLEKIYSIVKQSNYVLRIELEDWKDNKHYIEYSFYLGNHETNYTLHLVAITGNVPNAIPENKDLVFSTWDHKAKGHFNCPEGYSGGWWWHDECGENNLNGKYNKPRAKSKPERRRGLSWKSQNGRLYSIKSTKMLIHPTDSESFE


test system: Anti-ANGPTL3 polyclonal antibody (ABC83, Sigma); assay: Affinity determination of peptides with anti-ANGPTL3 antibody by surface plasmon resonance (Biacore T200); format: binding; conditions: SPR, peptide 1 mM in 1×PBS over immobilized anti-ANGPTL3 pAb, 25° C., response 5 s before end of injection
Experimental: Affinity of novel peptides of the present invention with anti-ANGPTL3 antibody ‘ANG’ was analysed by surface plasmon resonance (SPR), using a Biacore instrument (Biacore T200, GE Healthcare). SPR experiments were performed at […] with a BIACORE T200 apparatus (GE Healthcare, Uppsala, Sweden).
Surface Preparation: (Procedure for Antibody immobilization) Series S Sensor Chip CM5 surface was activated by a 7-min injection of EDC-NHS. Anti-ANGPTL3 polyclonal antibody (ABC83, Sigma), diluted to 4.5 μg/mL in 10 mM acetate buffer (pH 4.0), was immobilized on one of the four flow cells of a Series S Sensor Chip CM5 with the aim of 10000 RU (resonance units) using amine-coupling. The surface was blocked with 1M ethanolamine (pH 8.5). One flow cell was immobilized as blank for reference subtraction (without antibody). 1×PBS was used as running buffer.
Binding experiments: 1 mM stock of novel peptides of the present invention were made in 1×PBS and binding studies were conducted by passing over blank as well as ligand (anti-ANGPTL3 pAb) immobilized surface. Each cycle consisted of 120 s analyte (novel peptides of the present invention) injection at a flow rate of 10 μL/min (the association phase), followed by a dissociation phase of 300 s. Purified human recombinant ANGPTL3 (FLAG-tag, 91009-1, bps bioscience) was used as positive control (1 μM) and was analyzed under identical condition. Complete dissociation of ANGPTL3 and anti-ANGPTL3 antibody interaction was achieved by regenerating surface with 10 mM glycine/HCl (pH 2.0) for 40 s at a flow rate of 10 μl/min injection.
Data Analysis: The data was analyzed using the Biacore T200 Evaluation software. All the curves were initially reference-subtracted (from blank immobilized surface) and then subtracted from zero analyte concentration. Baselines were adjusted to zero for all curves and data was presented as Relative response or binding RU (Average of 5 s window) 5 s before end of sample injection.
Affinity of novel peptides of vaccine with ANGPTL3 antibody ANG were analysed by surface plasmon resonance (SPR), using a Biacore instrument (Biacore T200, GE Healthcare). SPR experiments were performed at 25° C. with a BIACORE T200 apparatus (GE Healthcare, Uppsala, Sweden).

Molecule | Relative response [RU]
83 (C[hArg]FAMLDDVKILANGLLQLGHGLKDFVHKTKGQI) [compound 83] | 5895.2
84 (CRF[Aib]MLDDVKILANGLLQLGHGLKDFVHKTKGQI) [compound 84] | 5813.7
85 (C[Cit]FAMLDDVLILANGLLQLGHGLKDFVHKTKGQI) [compound 85] | 4924.7
5 (CRFAM[Nle]DDVKILANGLLQLGHGLKDFVHKTKGQI) [compound 5] | 5850
6 (RFAMLDDV[Cit]ILANGLLQLGHGLKDFVHKTKGQI) [compound 6] | 6084.1
49 (CRFAMLDDVKILANGLLQLGHGLKDFVHKTKGQI; artificial ANGPTL3 peptide) [compound 49] | 5464.1
80 ([hArg]FAMLDDVKILANGLLQLGHGLKDFVHKTKGQI) [compound 80] | 5308.2
2 (R[APPA]AMLDDVKILANGLLQLGHGLKDFVHKTKGQI) [compound 2] | 5674
79 ([Cit]FAMLDDV[Cit]ILANGLLQLGHGLKDFVHKTKGQI) [compound 79] | 6152.5
87 (CRFAMLDDV[Cit]ILANGLLQLGHGLKDFVHKTKGQI) [compound 87] | 5820.9
78 (RF[Aib]MLDDVKILANGLLQLGHGLKDFVHKTKGQI) [compound 78] | 5539.6
82 (C[Cit]FAMLDDV[Cit]ILANGLLQLGHGLKDFVHKTKGQI) [compound 82] | 5518.3
86 (CR[APPA]AMLDDVKILANGLLQLGHGLKDFVHKTKGQI) [compound 86] | 5130.1
1 (RFAMLDDVKILANGLLQLGHGLKDFVHKTKGQI; artificial ANGPTL3 peptide) [compound 1] | 4832.6

molecular target: T1, ANGPTL3; assay: not given; conditions: humans, dose-dependent; cited from earlier work

Molecule | reduction in LDL cholesterol levels | reduction in fasting triglyceride levels
Evinacumab | up to 23% | up to 76%

molecular target: Anti-ANGPTL3 polyclonal antibody (ABC83, Sigma); assay: SPR (Biacore T200), antibody immobilised on CM5, peptide as analyte at 1 mM; conditions: not given

Molecule | Relative response [RU]
RFAMLDDVKILANGLLQLGHGLKDFVHKTKGQI [Peptide of SEQ ID NO. 1 (…)] | 4830
CRFAM[Nle]DDVKILANGLLQLGHGLKDFVHKTKGQI [Peptide of SEQ ID NO. 5 (CRFAM-Nle-…)] | 5850
CR[APPA]AMLDDVKILANGLLQLGHGLKDFVHKTKGQI [Peptide of SEQ ID NO. 86 (C-R-APPA-…)] | 5130
CRF[Aib]MLDDVKILANGLLQLGHGLKDFVHKTKGQI [Peptide of SEQ ID NO. 84 (C-RF-Aib-…)] | 5810
C[Cit]FAMLDDVLILANGLLQLGHGLKDFVHKTKGQI [Peptide of SEQ ID NO. 85 (C-Cit-…)] | 4920
CRFAMLDDVKILANGLLQLGHGLKDFVHKTKGQI [Peptide of SEQ ID NO. 49 (…)] | 5460
RF[Aib]MLDDVKILANGLLQLGHGLKDFVHKTKGQI [Peptide of SEQ ID NO. 78 (RF-Aib-…)] | 5540
RFAMLDDV[Cit]ILANGLLQLGHGLKDFVHKTKGQI [Peptide of SEQ ID NO. 6 (RFAMLDDV-Cit-…)] | 6080
[Cit]FAMLDDV[Cit]ILANGLLQLGHGLKDFVHKTKGQI [Peptide of SEQ ID NO. 79 (Cit-FAMLDDV-Cit-…)] | 6150
[hArg]FAMLDDVKILANGLLQLGHGLKDFVHKTKGQI [Peptide of SEQ ID NO. 80 (Har-…)] | 5310
R[APPA]AMLDDVKILANGLLQLGHGLKDFVHKTKGQI [Peptide of SEQ ID NO. 2 (R-APPA-…)] | 5670
CRFAMLDDV[Cit]ILANGLLQLGHGLKDFVHKTKGQI [Peptide of SEQ ID NO. 87 (C-RFAMLDDV-Cit-…)] | 5820
C[Cit]FAMLDDV[Cit]ILANGLLQLGHGLKDFVHKTKGQI [Peptide of SEQ ID NO. 82 (C-Cit-FAMLDDV-Cit-…)] | 5520
C[hArg]FAMLDDVKILANGLLQLGHGLKDFVHKTKGQI [Peptide of SEQ ID NO. 83 (C-Har-…)] | 5900
